Reference: PMC11224109, “Synthesis and preclinical evaluation of novel ^18F-vancomycin-based tracers for the detection of bacterial infections using positron emission tomography” (European Journal of Nuclear Medicine and Molecular Imaging, 2024)

Experiments:
[1] = Distribution coefficient LogD7.4, shake-flask n-octanol/PBS; assay type: physicochemical; conditions: shake-flask n-octanol/PBS pH 7.4, 500 µL each, 10 µL tracer in saline, vortexed 30 s, shaken 15 min, gamma counter, mean ± SD
Experimental: The tracer distribution coefficient in n-octanol/PBS pH 7.4 (LogD7.4) was determined using a shake-flask methodology. To an Eppendorf tube containing 500 µL n-octanol and 500 µL PBS, 10 µL tracer solution in saline was added. The vial was vortexed for 30 s and placed on an Eppendorf shaker for 15 min. After incubation, layers were separated by centrifugation (1 min at 10.000 rpm) and a fraction of the n-octanol layer was pipetted off. To minimize contamination of the bottom layer with the n-octanol layer, the bottom PBS layer was collected by puncturing the bottom of the Eppendorf tube with a 22G needle and aspirating a fraction of the PBS layer. Collected fractions were weighted to correct for collected volume and subsequently measured on a calibrated gamma counter and corrected for decay. LogD7.4 was calculated as [drawing 1] .

[2] = Summary of tracer stability in vitro and in vivo
Experimental: Stability of the tracers was determined in PBS and human plasma. In a typical experiment, 1 MBq of radioactivity (10–20 µL) was added to 250 µL of PBS or human plasma. Samples were heated to 37 °C on a shaker and sampled at fixed intervals. For samples containing human plasma, protein was precipitated using two volumes of cold MeCN. Precipitated samples were briefly centrifuged to pellet the insoluble fraction and supernatant was used for stability assessment. Supernatant (1 µL) was loaded on a TLC plate and imaged using BAS-IP MS 2025 E plates (Fujifilm, Tokyo, Japan) on an Amersham Typhoon Biomolecular Imager (GE Healthcare Bio-Sciences Corp, Chicago, United States) equipped with a phosphor imaging stage. [^18F]BODIPY-FL-vancomycin has an Rf of 0.68 (petroleum ether/MeOH 3:1), [^18F]FB-vancomycin has an Rf of 0.66 (2 M NaOAc/MeOH 5:1). For [^18F]PQ-VE1-vancomycin, conditions described in [44] were used.

in vivo = conditions: in vivo; for tissue uptake at 0.5 h / tissue uptake at 1 h / tissue uptake at 1.5 h: male, C57BL/6, mouse, 2 MBq, total radioactivity, Biodistribution
Experimental: All murine experiments were approved by the Animal Care and Use Committee of the University of Groningen under license protocol number 2114768-01-001. In vivo biodistribution was performed in male C57BL/6 mice (age 8 weeks, 25 g). Per tracer, the animals were divided in three groups based on the tracer distribution times (30 min, 60 min, and 90 min). […] Each experimental arm (i.e. time point) consisted of three animals. […] Tracer was administered at t = 0 via penile vein injection (2.0 ± 0.9 MBq in 100 µL 0.9% saline solution, Supplemental Table 2). After tracer administration, the animals were transferred to a Siemens Focus 220 microPET small animal scanner (Siemens, Munich, Germany) and scanned for the designated time, followed by a transmission scan of 10 min for attenuation correction. PET data were normalized and corrected for decay, after which the PET data were reconstructed using OSEM2D-Z1-SC-256. The PET data frames used for reconstruction were: 6 × 10 s, 4 × 30 s, 2 × 60 s, 120 s, 180 s, 4 × 300 s, 3 × 600 s, 1200 s or until the designated scan time was reached, taking into account a 10-min transmission scan following the emission scan. Next, animals were terminated, and organs harvested to assay biodistribution in a calibrated gamma counter (Wizard2, Perkin Elmer, Waltham, United States).

Gram-positive bacteria = assay: Tracer binding to test panel of clinically relevant bacteria, Gram-positive; design: species or system C. acnes, E. faecalis, S. aureus, S. capitis, S. epidermidis; conditions: summary table
Experimental: Clinical isolates of E. cloacae, S. capitis, S. aureus, as well as type strains of E. coli, E. faecalis, K. pneumoniae, P. aeruginosa and S. epidermidis were grown under aerobic conditions in brain heart infusion broth. A clinical isolate of the anaerobic bacterium C. acnes was grown on plate in an anaerobic chamber, and subsequently cultured in liquid medium with minimal headspace. Samples from fresh bacterial cultures were normalized to an OD600 of 1.0, fixed in PBS with 0.5% paraformaldehyde (PFA) for 10 min at room temperature, and resuspended in 1 mL sterile PBS. The fixated bacteria were incubated with tracer (133 kBq per mL, 42.8 pg and 0.6 pg of [^18F]BODIPY-FL-vancomycin and [^18F]PQ-VE1-vancomycin, respectively) and washed twice with sterile PBS. […] Measurements were corrected for background and decay. Results are reported as percentage of the total tracer added.

## Cc1cc(C)n2c1C=C1C=CC(CCC(=O)N(C)[C@H](CC(C)C)C(=O)N[C@H]3C(=O)N[C@@H](CC(N)=O)C(=O)N[C@H]4C(=O)N[C@H]5C(=O)N[C@H](C(=O)N[C@H](C(=O)O)c6cc(O)cc(O)c6-c6cc5ccc6O)[C@H](O)c5ccc(c(Cl)c5)Oc5cc4cc(c5O[C@@H]4O[C@H](CO)[C@@H](O)[C@H](O)[C@H]4O[C@H]4C[C@](C)(N)[C@H](O)[C@H](C)O4)Oc4ccc(cc4Cl)[C@H]3O)=[N+]1[B-]2(F)F [[^18F]BODIPY-FL-vancomycin]
[1]
  LogD7.4: -1.72 ± 0.02 (n = 10)
[2]
  Stability: Stable in vitro and in vivo up to 2 h.
In vivo; iv, Bladder
  tissue uptake at 0.5 h: 4.83 %ID/g
  tissue uptake at 1 h: 7.62 %ID/g
  tissue uptake at 1.5 h: 9.43 %ID/g
In vivo; iv, Bone
  tissue uptake at 0.5 h: 1.2 %ID/g
  tissue uptake at 1 h: 2.71 %ID/g
  tissue uptake at 1.5 h: 3.27 %ID/g
In vivo; iv, Brain
  tissue uptake at 0.5 h: 0.05 %ID/g
  tissue uptake at 1 h: 0.09 %ID/g
  tissue uptake at 1.5 h: 0.05 %ID/g
In vivo; iv, Fat
  tissue uptake at 0.5 h: 0.59 %ID/g
  tissue uptake at 1 h: 0.67 %ID/g
  tissue uptake at 1.5 h: 0.49 %ID/g
In vivo; iv, Heart
  tissue uptake at 0.5 h: 0.96 %ID/g
  tissue uptake at 1 h: 1.25 %ID/g
  tissue uptake at 1.5 h: 0.81 %ID/g
In vivo; iv, Kidneys
  tissue uptake at 0.5 h: 7.77 %ID/g
  tissue uptake at 1 h: 7.13 %ID/g
  tissue uptake at 1.5 h: 7 %ID/g
In vivo; iv, Large intestine
  tissue uptake at 0.5 h: 0.93 %ID/g
  tissue uptake at 1 h: 1.34 %ID/g
  tissue uptake at 1.5 h: 0.91 %ID/g
In vivo; iv, Liver
  tissue uptake at 0.5 h: 2.27 %ID/g
  tissue uptake at 1 h: 3.47 %ID/g
  tissue uptake at 1.5 h: 2.86 %ID/g
In vivo; iv, Lungs
  tissue uptake at 0.5 h: 4.59 %ID/g
  tissue uptake at 1 h: 6.68 %ID/g
  tissue uptake at 1.5 h: 4.39 %ID/g
In vivo; iv, Muscle
  tissue uptake at 0.5 h: 0.42 %ID/g
  tissue uptake at 1 h: 0.66 %ID/g
  tissue uptake at 1.5 h: 0.46 %ID/g
In vivo; iv, Plasma
  tissue uptake at 0.5 h: 2.41 %ID/g
  tissue uptake at 1 h: 3.25 %ID/g
  tissue uptake at 1.5 h: 2.13 %ID/g
In vivo; iv, Small intestine
  tissue uptake at 0.5 h: 1.1 %ID/g
  tissue uptake at 1 h: 2.01 %ID/g
  tissue uptake at 1.5 h: 1.89 %ID/g
In vivo; iv, Spleen
  tissue uptake at 0.5 h: 1.41 %ID/g
  tissue uptake at 1 h: 3.02 %ID/g
  tissue uptake at 1.5 h: 2.73 %ID/g
In vivo; iv, Stomach
  tissue uptake at 0.5 h: 1.16 %ID/g
  tissue uptake at 1 h: 1.59 %ID/g
  tissue uptake at 1.5 h: 0.98 %ID/g
In vivo; iv, Whole blood
  tissue uptake at 0.5 h: 1.68 %ID/g
  tissue uptake at 1 h: 1.86 %ID/g
  tissue uptake at 1.5 h: 1.1 %ID/g
In vivo; mouse
  Accumulation: Accumulation in liver, kidneys and lungs
  Muscle uptake: Low muscle uptake
In vivo; mouse, iv
  Crossing of the blood-brain barrier (BBB): no substantial signal was observed in the brain
Gram-positive bacteria
  Binding to Gram-positive bacteria in vitro: LogD7.4 -1.72. Am 5.35 GBq/µmol. MIC 16 µg/mL. Binding to Gram-positive bacteria in vitro.
